Experimental data published in PMC7755780, “Tetrachloroethene respiration in Sulfurospirillum species is regulated by a two‐component system as unraveled by comparative genomics, transcriptomics, and regulator binding studies”.

T1: RR2 (PceP), OmpR-family response regulator of TCS2 (Sulfurospirillum halorespirans, UniProt A0A1D7TJV3 1-223)
T1 sequence: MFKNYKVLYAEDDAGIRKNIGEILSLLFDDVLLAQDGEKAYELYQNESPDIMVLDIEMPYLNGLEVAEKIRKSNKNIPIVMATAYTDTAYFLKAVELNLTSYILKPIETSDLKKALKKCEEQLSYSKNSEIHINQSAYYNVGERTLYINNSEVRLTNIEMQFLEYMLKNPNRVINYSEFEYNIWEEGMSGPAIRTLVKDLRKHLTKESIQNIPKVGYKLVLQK

T2: RR2 (PceP), OmpR-family response regulator of TCS2 (Sulfurospirillum halorespirans (DSM 13726?)) (UniProt A0A1D7TJV3)
T2 sequence: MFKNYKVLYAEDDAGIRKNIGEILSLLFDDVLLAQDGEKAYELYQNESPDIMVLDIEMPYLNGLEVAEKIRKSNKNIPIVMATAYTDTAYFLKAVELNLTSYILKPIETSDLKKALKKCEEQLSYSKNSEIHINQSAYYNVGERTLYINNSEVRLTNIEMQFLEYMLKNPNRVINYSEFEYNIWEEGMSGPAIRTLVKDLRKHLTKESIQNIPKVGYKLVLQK

B1: ppceAB minimum 70-bp fragment (dsDNA)
DNA 1: ATTATTTTAAAATTAAAATCTATATCTTTCCTATAACAAAGCTATAACTTTTGTATATCATTCTTAAAAT
DNA 2: ATTTTAAGAATGATATACAAAAGTTATAGCTTTGTTATAGGAAAGATATAGATTTTAATTTTAAAATAAT

Biological target: T1, RR2 (PceP), OmpR-family response …
Assay: EMSA; minimum binding fragment; 30 or 60 pmol RR2; EMSA: 10 mM HEPES pH 7.6, 2 mM MgCl2, 200 mM KCl, 0.1 mM EDTA, 5 mM DTT, 10% glycerol, 50 ug/ul Ficoll 70, 250 ng poly(dI/dC), 2.5 pmol DNA in 15 ul, room temperature 20 min; gel with 30% triethylene glycol in 1x TAE
Settings: protein: recombinant; tags: Twin-Strep; chain copies: 2; label: 6-FAM; blunt

Molecule | binding result
B1 | binds

Biological target: T2, RR2 (PceP), OmpR-family response regulator of TCS2 (Sulfurospirillum halorespirans (DSM 13726?))
Assay: EMSA
Settings: EMSA: 10 mM HEPES pH 7.6, 2 mM MgCl2, 200 mM KCl, 0.1 mM EDTA, 5 mM DTT, 10% glycerol, 50 ug/ul Ficoll 70, 250 ng poly(dI/dC), 2.5 pmol DNA in 15 ul, room …

Molecule | binding
CATATTCTATCCTTATTTTTAAAATATTTAATTATTATAAATGTAAGTATAGAAAATAATTATAGGTTGTTTGTAGATAATAATAATTTTTCTACTAATTCTTTAATCATTAAATAATATTCAGTAGTATTTCTATCTATCTCGATGCTCAAAAAAACACCATCAATTCTATCAATATCTACATCTATAACTTTTTCTTAA (double strand) [p1494 (ahpD-like gene promoter)] | binds more weakly
CATGTGTGAACCTATCCTATAGTTTATAACTATGATTCTATCAGATATTTTGTTAAAAATTAACTTAAAAGAGTAAAAATTATCTATTTAATAGTTACCCTATATTTCACCTATAAGTTACCTATAAATATTCATAAAATTCAAGGTTCTCTCTTTATTGCACACAAAGTTACTACAAGTTTTATGTACT (double strand) [pTCS2/SHALO_1504 intergenic region (pTCS2)] | binds
CATTAAATTCTTAATTACATCATTATATCACAAAAAAGGCAAGGAATGATAAAAAAGTTTTATCATCTAAGTGAAGTATTAGACAATATCATATAATTAAATAGTTAAAGTAGTATAAATAAACCGTAAAATATGCAAATAACTGCATTTATAAGCTAATATTAATAAAATATACAA (double strand) [p1552 promoter (phage CI repressor superfamily gene)] | no binding
TTCACCTATAAGTTACCTATAAATATTCATAAAATTCAAGGTTCTCTCTTTATTGCACACAAAGTTACTACAAGTTTTATGTACT (double strand) [pTCS2/SHALO_1504 f2 (first CCTATA incomplete)] | binds more weakly
ATTGTCTGATATATTGACAAAATCTTTATAAAATCTCCAAAAATATAAAAAAAGAAAAGTATTTACTTATTACTTCGTAAATATTATTAACTTTCATTATTTTAAAATTAAAATCTATATCTTTCCTATAACAAAGCTATAACTTTTGTATATCATTCTTAAAATGTGAAATTAATTCATAAACACATTAAAAAATAAATAACTGTACTTGGGGTTATTTATAAAAGGTTACAAGAAGGTTTGAATACCACTGTGTAAGTTGTTACTCTTGGTATTTTTTAAGGAGGAAGTATG (double strand) [ppceAB promoter] | binds
TCTATCAGATATTTTGTTAAAAATTAACTTAAAAGAGTAAAAATTATCTATTTAATAGTTACCCTATATTTCACCTATAAGTTAC (double strand) [pTCS2/SHALO_1504 f9 (lacks repeat closest to SHALO_1504 TSS)] | no binding
CTGCATAGAGTATTGTATAAGAAGCGAGCATGTTAAATCCCTGAAATTTTATGAATAATGTACGTATTATAAAAAAAGAAATATAGAACTTGTAGATAAAAAATATTTTCCTTCTATTTTAGTTATACAACGGTTGCATAAGTTTTAAATACAATTTTCATAATAAGTCAGATGTTAAATGGTTGTACTTGGGATCATTTAATTAAAGGTTACAAGAAGGTTTAAAATCATTATCATGATTGTATGGTAGATGATTTTTTAAGGAGTAAATATG (double strand) [prdhAB promoter] | binds more weakly
